The text below walks through data of patent US20260056186A1 (JIANGSU HENGRUI PHARMACEUTICALS, published 2026).

Test [1] has as its target T1, IFNAR1 (human, UniProt P17181 28-557).
T1 sequence (looked up): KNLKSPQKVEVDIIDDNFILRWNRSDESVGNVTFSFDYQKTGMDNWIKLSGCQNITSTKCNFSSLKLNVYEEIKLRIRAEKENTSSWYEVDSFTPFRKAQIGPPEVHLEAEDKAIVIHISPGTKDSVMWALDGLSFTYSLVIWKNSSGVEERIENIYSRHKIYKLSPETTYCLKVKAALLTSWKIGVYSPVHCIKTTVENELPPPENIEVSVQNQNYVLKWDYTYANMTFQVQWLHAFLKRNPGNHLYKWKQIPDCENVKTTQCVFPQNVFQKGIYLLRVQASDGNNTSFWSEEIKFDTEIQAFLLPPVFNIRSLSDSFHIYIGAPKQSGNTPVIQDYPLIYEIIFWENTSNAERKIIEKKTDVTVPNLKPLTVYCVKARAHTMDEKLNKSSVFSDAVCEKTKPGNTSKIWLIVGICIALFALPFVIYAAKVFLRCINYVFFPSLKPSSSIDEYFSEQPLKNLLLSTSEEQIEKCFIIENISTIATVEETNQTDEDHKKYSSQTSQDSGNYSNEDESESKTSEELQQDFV
The test can be described thus: cell-based or functional assay.

For test [2], the target named is T1, IFNAR1. In words: cell-based or functional assay. This is another data set of the same source.
The target in test [3] is recombinant human BAFF (R&D cat: 7537-BF-025/CF) (human, UniProt Q9Y275 134-285). The test can be described thus: cell-based or functional assay.
Chain of recombinant human BAFF (R&D cat: 7537-BF-025/CF) (Q9Y275 134-285 limits assumed): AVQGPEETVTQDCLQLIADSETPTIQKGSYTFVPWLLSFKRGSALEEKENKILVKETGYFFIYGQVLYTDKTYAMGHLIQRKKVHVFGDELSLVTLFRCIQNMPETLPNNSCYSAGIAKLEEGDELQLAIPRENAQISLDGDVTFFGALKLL
Test [4] concerns the target T2, recombinant human APRIL (R&D cat: 5860-AP-010/CF) (human, UniProt O75888 105-250, limits assumed).
T2 sequence (looked up): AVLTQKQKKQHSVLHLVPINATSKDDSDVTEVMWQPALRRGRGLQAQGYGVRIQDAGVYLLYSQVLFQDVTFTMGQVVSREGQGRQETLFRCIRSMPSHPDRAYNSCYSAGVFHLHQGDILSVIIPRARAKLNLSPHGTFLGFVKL
In words: cell-based or functional assay.

Test [5] concerns the target T3, APRIL (Acro Biosystems, Cat: APL-H52D1) (UniProt O75888 115-250, limits assumed).
T3 construct: also called ARPIL
T3 sequence (looked up): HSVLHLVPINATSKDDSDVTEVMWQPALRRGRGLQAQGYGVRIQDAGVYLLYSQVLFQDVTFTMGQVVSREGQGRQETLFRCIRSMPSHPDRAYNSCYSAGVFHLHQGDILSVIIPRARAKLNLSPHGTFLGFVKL
The test can be described thus: ELISA, APRIL coated at 1 ug/mL, anti-human Fc-HRP, OD450. As to the method: The capabilities of fusion proteins B606401, B637302, B746201, and B805201 to bind to BAFF and APRIL were assessed by ELISA as follows:
BAFF (PeproTech, Cat: 310-13) or ARPIL (Acro Biosystems, Cat: APL-H52D1) was diluted to 1 μg/mL with PBS, and a 96-well plate was coated with the dilution overnight at 4° C. The plate was washed with PBST and blocked with Blocking Buffer (PBST containing 1% BSA) at 37° C. for 1 h. The plate was tapped. The test antibodies were diluted with Blocking Buffer. Incubation was performed at 37° C. for 1.5 h. The plate was washed with PBST. An HRP-mouse anti-human Fc antibody (GenScript, Cat: A01854-200) was diluted with Blocking Buffer. Incubation was performed at 37° C. for 40 min. The plate was washed with PBST. 100 μL of TMB substrate solution (Biopanda, Cat: TMB-S-003) was added, and color development was performed at 37° C. for 3 min. 100 μL of ELISA stop solution (Solarbio, Cat: C1058) was added. OD450 was measured.
On the technique in general: In an ELISA, binding on a coated surface is turned into a signal by an enzyme label.

The target in test [6] is T3, APRIL (Acro Biosystems, Cat: APL-H52D1). The test can be described thus: ELISA, APRIL coated; reference telitacicept.
For test [7], the target named is T4, BAFF (Sino biological, 10056-HNCH) (UniProt Q9Y275 134-285, biotinylated in the blocking ELISA (site not stated)).
T4 construct: also called BLyS
T4 sequence (Q9Y275 134-285 limits assumed): as the sequence (Q9Y275 134-285 limits assumed) above
In words: ELISA, BAFF coated at 1 ug/mL, anti-human IgG-HRP. How it is done:
(§1) In addition, the BAFF binding activity of the constructed TACI-Fc fusion proteins was assessed, and the TACI-Fc fusion proteins' functional activity of blocking the binding of BAFF to BAFF-R was assessed (see Example 1 for the experimental method).
(§2) The BAFF binding activity of the TACI-Fc fusion proteins was assessed as follows: BAFF (Sino biological, 10056-HNCH) protein was diluted with a pH 7.4 PBS (BasalMedia, B320) buffer to 1 μg/mL, and the resulting dilution was added to a 96-well microplate (Corning, 3590) at 100 μL/well. The plate was incubated overnight at 4° C. After the liquid was discarded, 5% skim milk (BD, 232100), diluted with PBS, was added at 300 μL/well for blocking, and the plate was incubated at 37° C. for 2 h. After the blocking, the blocking solution was discarded, and the plate was washed 3 times with a PBST buffer (pH 7.4 PBS containing 0.10% tween-20). Serially diluted test antibody or fusion protein solutions were added at 100 μL/well, and the plate was incubated at 37° C. for 1 h. […] The plate was incubated at 37° C. for 1 h. After the plate was washed 3 times with PBST, the chromogenic substrate TMB (KPL, 5120-0077) was added at 100 μL/well. The plate was incubated at room temperature for 10-15 min, and 1 M H₂SO₄ was added at 50 μL/well to stop the reaction. The absorbance at 450 nm was measured using a microplate reader. Curves for the binding of the antibodies to the antigen were fitted using software, and EC₅₀ values were calculated.

For test [8], the target named is T4, BAFF (Sino biological, 10056-HNCH). In words: competition ELISA: fusion protein pre-mixed with biotinylated BAFF, added to coated BAFF-R. As to the method: (§3) The above TACI-Fc fusion proteins' function of blocking the binding of BAFF to BAFF-R was further assessed as follows: The receptor protein was diluted with a pH 7.4 PBS (BasalMedia, B320) buffer to 2 μg/mL, and the resulting dilution was added to a 96-well microplate (Corning, 3590) at 100 μL/well. The plate was incubated overnight at 4° C. After the liquid was discarded, 1% Casein blocking solution (Thermo, 37528) was added at 200 μL/well for blocking, and the plate was incubated at 37° C. for 2 h. After the blocking, the blocking solution was discarded, and the plate was washed 3 times with a PBST buffer (pH 7.4 PBS containing 0.1% tween-20) and set aside for later use. A biotinylated ligand protein at a fixed concentration was mixed with a serially diluted antibody or fusion protein, and the mixture was pre-incubated at 37° C. for 30 min and then added to the blocked microplate. The plate was incubated at 37° C. for 1.5 h. After the incubation, the plate was washed 3 times with PBST, and streptavidin-HRP (Invitrogen, 434323, diluted in a 1:4000 ratio) was added at 100 μL/well. The plate was incubated at 37° C. for 1 h. The supernatant was removed. After the plate was washed 3 times with PBST, the chromogenic substrate TMB (KPL, 5120-0077) was added at 100 μL/well. The plate was incubated at room temperature for 10-15 min, and 1 M H₂SO₄ was added at 50 μL/well to stop the reaction. The absorbance at 450 nm was measured using a microplate reader. Curves for the inhibition of the binding of the ligand to the receptor were fitted using software, and IC₅₀ values were calculated. The sources of the ligand and the receptor protein used are as follows: BAFF (Sino biological, 10056-HNCH) and BAFF-R (Sino biological, 16079-H02H).
as §1

Test [9] has the same target. The test can be described thus: ELISA, BAFF coated at 1 ug/mL, anti-human IgG-HRP. How it is done:
as §2
The BAFF binding activity of the constructed TACI-Fc fusion proteins was assessed (see Example 2 for the experimental method), and the results are shown in Table 3: […]
This is another data set of the same source.

The target is the same in test [10]. The test can be described thus: competition ELISA: fusion protein pre-mixed with biotinylated BAFF, added to coated BAFF-R. As to the method:
as §3, with “After the plate was washed 3 times with PBST, the chromogenic substrate TMB (KPL, 5120-0077) was added at 100 μL/well. The plate was incubated at room temperature for 10-15 min, and 1 M H₂SO₄ was added at 50 μL/well to stop the reaction.” left out, “The sources of the ligand and the receptor protein used are as follows: BAFF (Sino biological, 10056-HNCH) and BAFF-R (Sino biological, 16079-H02H).” left out
The source holds these as a separate data set.

Read-outs that look alike come from different tables or passages of the source.

B1: B746201 (other)
heavy: EVQLVQSGAEVKKPGESLKISCKGSGYIFTNYWIAWVRQMPGKGLESMGIIYPGDSDIRYSPSFQGQVTISADKSITTAYLQWSSLKASDTAMYYCARHDIEGFDYWGRGTLVTVSSASTKGPSVFPLAPSSKSTSGGTAALGCLVKDYFPEPVTVSWNSGALTSGVHTFPAVLQSSGLYSLSSVVTVPSSSLGTQTYICNVNHKPSNTKVDKRVEPKSCDKTHTCPPCPAPEFEGGPSVFLFPPKPKDTLMISRTPEVTCVVVDVSHEDPEVKFNWYVDGVEVHNAKTKPREEQYNSTYRVVSVLTVLHQDWLNGKEYKCKVSNKALPASIEKTISKAKGQPREPQVYTLPPSRDELTKNQVSLTCLVKGFYPSDIAVEWESNGQPENNYKTTPPVLDSDGSFFLYSKLTVDKSRWQQGNVFSCSVMHEALHNHYTQKSLSLSPGKGGGGSGGGGSGGGGSMLQMAGQCSQNEYFDSLLHACIPCQLRCSSNTPPLTCQRYCSTSCREEQGEFYDHLLRDCISCASICGQHPKQCAAFCE
light: EIVLTQSPGTLSLSPGERATLSCRASQSVSSSFFAWYQQKPGQAPRLLIYGASSRATGIPDRLSGSGSGTDFTLTITRLEPEDFAVYYCQQYDSSAITFGQGTRLEIKRTVAAPSVFIFPPSDEQLKSGTASVVCLLNNFYPREAKVQWKVDNALQSGNSQESVTEQDSKDSTYSLSSTLTLSKADYEKHKVYACEVTHQGLSSPVTKSFNRGEC
notes: Fusion protein of anifrolumab, TACI-19-16 and BCMA-ECD-2 (C-terminus of the heavy chain)
In the case of B1, the “IC50 (nM), inhibition of the activity of type I interferons (IFN-beta, HEK-Blue IFN-alpha/beta reporter cells)” value with IFNAR1 [1] was 1.64 nM. Besides, the “IC50, inhibition of IFN-alpha-induced in vitro differentiation of B cells into plasma cells (CD27+ CD38+)” value in the test with IFNAR1 [2] came to 1.9 nM. Also, in test [3], the “CD27+ CD38+ plasma cell count, mean value, BAFF + APRIL-induced (both ligands together), drug at 100 nM (IgG1: 2496)” value came to 520 cells and the “CD27+ CD38+ plasma cell count, mean value, BAFF + APRIL-induced (both ligands together), drug at 1000 nM (IgG1: 2279)” value is 410 cells. Moreover, in test [4], the “CD27+ CD38+ plasma cell count, mean value, BAFF + APRIL-induced (both ligands together), drug at 10 nM (IgG1: 2687)” value was found to be 575 cells; the “CD27+ CD38+ plasma cell count, mean value, BAFF + APRIL-induced (both ligands together), drug at 100 nM (IgG1: 2496)” value was found to be 520 cells; the “CD27+ CD38+ plasma cell count, mean value, BAFF + APRIL-induced (both ligands together), drug at 1000 nM (IgG1: 2279)” value stood at 410 cells. In test [5], the response was half-maximal at 0.179 nM (EC50) and the Emax came out at 2.8. Further, the “EC50 relative to telitacicept” value in [6] was determined as 0.333 fold.

B2: TACI-9-Fc (Fc fusion)
chain: SLSCRKEQGKFYDHLLRDCISCASICGQHPKQCAYFCENKLDKTHTCPPCPAPEAEGAPSVFLFPPKPKDTLMISRTPEVTCVVVDVSHEDPEVKFNWYVDGVEVHNAKTKPREEQYNSTYRVVSVLTVLHQDWLNGKEYKCKVSNKALPSSIEKTISKAKGQPREPQVYTLPPSRDELTKNQVSLTCLVKGFYPSDIAVEWESNGQPENNYKTTPPVLDSDGSFFLYSKLTVDKSRWQQGNVFSCSVMHEALHNHYTQKSLSLSPGK
notes: C-terminus of TACI-9 fused directly to the N-terminus of human IgG1 Fc; two identical polypeptide chains; expressed in 293E
In the case of B2, the EC50 (usually the midpoint of the concentration-response curve) in test [7] was 0.49 nM; in test [9], 0.418 nM. In addition, the IC50 (usually the concentration at which inhibition is half-maximal) in test [8] is 2.09 nM; in test [10] it was 5.02 nM.
